30 sequences from the nanobody polyreactivity screen of Harvey et al. (2022) can be followed below.

A short description of this data set: yeast display, Sf9 membrane polyspecificity reagent, FACS + sequencing; frameworks hold sequencing errors. In a few lines: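 Polyreactivity labels are assigned by the sorting gate from which each nanobody was recovered. The gates were low and high (top ~1%), set on anti-HA fluorescence for expression and streptavidin fluorescence for reagent binding. Before sorting, galactose-induced (36–48 hours) yeast display cells were stained for 1 hour at 4 °C with 10% biotinylated, detergent-solubilized Sf9 membrane reagent.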
Regarding “QVQLVESGGGLVQAGGSLRLSCAASGFIYNKYTMGWYRQAPGKERELVAAIRSSGGSTYYADSVKGRFTISRDNAKNTVYLQMNSLKPEDTAVYYCNALPYQVWKRYSWGQGTQVTVSS”, the “polyreactivity (PSR sort gate)” value was “high polyreactivity”.

Regarding “QVQLVESGGGLVQAGGSLRLSCAASGFIYPYYAMGCYIQAPGKETELVAGISKSGGRTTYADSVKGRFTISRDNAKNTVYLQMNSLKPEDTAVYYCAAVYRAFPIYEDDYWGQGTQVTVSS”, the “polyreactivity (PSR sort gate)” value is “high polyreactivity”.

For “QVQLVESGGGLVQAGGSLRLSCAASGFIYSGYAIGCYRQAPAKERELVDTNSGSGGSTYYADSVKGRFTISRDNAKNTVYLKMNSLKTEDTAVYYCAARQRGGYGYWGQGTQVTESS”, the “polyreactivity (PSR sort gate)” value is reported as “high polyreactivity”.

For “QVQLVESGGGLVQAGGSLRLSCAASGFIYSSYAMGWYRQAPGKERELVAAITRNGGSTYYADSVKGRFTISRDNAKNTVYLQMNSLKPEDTAVYYCAAPRWRGVGRFDYWGQGSQVTVSS”, the “polyreactivity (PSR sort gate)” value is reported as “high polyreactivity”.

In the case of “QVQLVESGGGLVQAGGSLRLSCAASGFIYYSYTMGWYRQAPGKERELVATISSNGGRTYYADSVKGRYTISRDNAKNTVYLQMNSLKPEDTAVYYCATDVPHGYYWSYGDYYWGQRTQVTVSS”, the “polyreactivity (PSR sort gate)” value is listed as “low polyreactivity”.

As to “QVQLVESGGGLVQAGGSLRLSCAASGFLFDFYPLGWYRPAPGKDRELVAAITNGGSTYYADSVKGRFTISRDNAKNTDYLQMNSLKPEDTAVYYCAAYYRSRHHGYDSCGQGTQVTVSS”, the “polyreactivity (PSR sort gate)” value is “low polyreactivity”.

Take “QVQLVESGGGLVQAGGSLRLSCAASGFMFDDNAMGWYRQAPRKERELVAAITSGGGSTYYADSVKGRFTISRDYAKITVYLLMNSLKPEDTAVYYCAAGGYPSLLHDYDYWGQGTQVTVSS”: the “polyreactivity (PSR sort gate)” value is recorded as “low polyreactivity”.

In the case of “QVQLVESGGGLVQAGGSLRLSCAASGFNFGNYAMGWYRQAPGKERELVAVISRGGSTYYADSVKGRFTISRDYAKNSVYLQMNSLKPEDTAVYFCAARAFPPYGYDYWGQGTQVTVSS”, the “polyreactivity (PSR sort gate)” value is “high polyreactivity”.

“QVQLVESGGGLVQAGGSLRLSCAASGFNFNYNAMGRYREAPGKERELVAAISTSGSSTYYADSVKGRFTISRDNAKNTVYLQMNSLKPEDTAVYYCAARRSTRHRYRVGTCYKYDYWGQGTQVTVSS”: the “polyreactivity (PSR sort gate)” value was “high polyreactivity”.

Take “QVQLVESGGGLVQAGGSLRLSCAASGFNFPDYAMGWYRQAPGKETELVAAITSAGGRTYYADSVKGRFTISRDNAKNTVYLQMNSLKPEDTAVFYCNALTTKGTGTYNGGYWGEGTQVTVSS”: the “polyreactivity (PSR sort gate)” value is recorded as “high polyreactivity”.

As to “QVQLVESGGGLVQAGGSLRLSCAASGFNFRTNAMGWYRQAPGKERELVAAISRSGNTYYADSVKGRFTISRDNAKNTVYLQMNSLKPEDTAVYYCAAQSVRWYSSFKYYYWRQGTQVTVSS”, the “polyreactivity (PSR sort gate)” value is listed as “high polyreactivity”.

Regarding “QVQLVESGGGLVQAGGSLRLSCAASGFNSHFYAMGSYRQAPGKEREFVDRISYSGGSTYYADSVKGRFTISRDNAKNTVYLQMNSLKPEDTAVYFCAADKHYFRHFGSWGQGTQVTVSS”, the “polyreactivity (PSR sort gate)” value is recorded as “low polyreactivity”.

In the case of “QVQLVESGGGLVQAGGSLRLSCAASGFPIHAYVMGWYRQAPGKERELVAAISSGGSTYYADSVKGRFTISRDNAKKTVYLQMNSLKPEDTAVYYCAAGYPYYWHFDYWGQGTQVTVSS”, the “polyreactivity (PSR sort gate)” value is given as “low polyreactivity”.

Turning to “QVQLVESGGGLVQAGGSLRLSCAASGFQYGMGWYRQAPGKERELVAAISRDGSTNYADSVKGRFTISRDNAKNTVYLQMNSLKPEDTAVYYCAVDFYFLYGWGQGTQVTVSS”, the “polyreactivity (PSR sort gate)” value is given as “low polyreactivity”.

With “QVQLVESGGGLVQAGGSLRLSCAASGFSFKLYAMGWYRQAPGKEREFVAAINRSGGSTYYADSVKGRFTISRDNAKNTVYLQMNSLKPEDTAVYYCAALAYTLYDYWGQGTQVTVSS”, the “polyreactivity (PSR sort gate)” value is “high polyreactivity”.

In the case of “QVQLVESGGGLVQAGGSLRLSCAASGFSFKSYAMGWYRQAPGKERELVAAISRGTSTKYADSVKGRFTISRDNAKNTVYLQMNSLKPEDTAVYNCAALFPTSDLRLRYYRYDYWGQGTQVTVSS”, the “polyreactivity (PSR sort gate)” value is “low polyreactivity”.

In the case of “QVQLVESGGGLVQAGGSLRLSCAASGFSFSRYAMGWYRQAPGKEREFVASITRRGGSTYYADSVKGRFTISRDNAKNTVYLQMNSLKPEDTAVYYCNAGYTWGRFEYWGQGTQVTVSS”, the “polyreactivity (PSR sort gate)” value is listed as “high polyreactivity”.

“QVQLVESGGGLVQAGGSLRLSCAASGFSFTSNAMAWYRQAPGKERELVAAITTRGGSTYYADSVKGRFTLSRDNAKNTVDLPMNSLKPEDTSVYYCAARYSYWGLLRYDYWGQGTQVTVSS”: the “polyreactivity (PSR sort gate)” value is listed as “high polyreactivity”.

“QVQLVESGGGLVQAGGSLRLSCAASGFTCASNDMGWSRQAPGKERELVAAITKGGGRTYYADSVKGRFTISRDNAKNTVYLQMNSLKPEDTAVYYCAARQLIKYDYWGPGTQVTVSS”: the “polyreactivity (PSR sort gate)” value was “low polyreactivity”.

For “QVQLVESGGGLVQAGGSLRLSCAASGFTCGSYTMGWYRQAPGKERELVAVISRSGSSTYYADSVKGRFTISRDNAKNTVYLQMNSLKPEDTAVYYCNADYSRLGYDYWGQGTQVTVSS”, the “polyreactivity (PSR sort gate)” value is “high polyreactivity”.

With “QVQLVESGGGLVQAGGSLRLSCAASGFTCTRNAMGWFRQAPGKERELVAAISSSAGSTSYADSVKGRFTISRDNAKNTDYLQMNSLKPEDTAVYYCATEGSYYSWVGKVGYRYQYHYWGQGTQVTVSS”, the “polyreactivity (PSR sort gate)” value is given as “high polyreactivity”.

For “QVQLVESGGGLVQAGGSLRLSCAASGFTFAANAMGWYRQAPGKERELVAAISSDSTYADSVKGRFTISRDNAKNTVYLQMNSLKPEDTAVYYCAKDRYIVNSPGLDYWGQGTQVTVSS”, the “polyreactivity (PSR sort gate)” value is reported as “low polyreactivity”.

In the case of “QVQLVESGGGLVQAGGSLRLSCAASGFTFAFYAMGWYRQAPGKERELVAAISWDGVTTYYADSVKGRFTISRDNAKNTVYLQMNSLKPEDTAVYYCNVQWYGGYDYWGQGTQVTVSS”, the “polyreactivity (PSR sort gate)” value is reported as “low polyreactivity”.

In the case of “QVQLVESGGGLVQAGGSLRLSCAASGFTFAFYAMGWYSPAPGKVRELVAAISWDGVTTYYADSVKGRFTISRDNAKNTVYLQMNSLKPEDTAVYYCAADYPDYAASFWPSGMYYWGQGTQVTVSS”, the “polyreactivity (PSR sort gate)” value was “low polyreactivity”.

On to “QVQLVESGGGLVQAGGSLRLSCAASGFTFAGYAMGWYRQAPGKERELVAGIRSSGARTYYADSAKGRFTISRDNAKNTVYFKMNSLKPEDTADYYFAKTDGFYRGYGYWGQGTKVTVSS”, for which the “polyreactivity (PSR sort gate)” value is given as “low polyreactivity”.

On to “QVQLVESGGGLVQAGGSLRLSCAASGFTFAHNAMGWYRQAPGKERELVAAITRSGGSTYYADSVKGRFTISRDNAKNTVYLQMNSLKPEDTAVYYCNAGRRGSGYGYWGQGTQVTVSS”, for which the “polyreactivity (PSR sort gate)” value is listed as “high polyreactivity”.

For “QVQLVESGGGLVQAGGSLRLSCAASGFTFAKNAMGWYRQAPGKERELVATISRSGGSTYYADSVKGRFTISRDNAKNTVYLQMNSLKPEDTAVYYCAADRSYGVLGNEGGYWGQGTQVTVSS”, the “polyreactivity (PSR sort gate)” value is reported as “high polyreactivity”.

For the sequence “QVQLVESGGGLVQAGGSLRLSCAASGFTFAKYAMGWYRQAPGKERELVAAISSSGGRTYYADSVQGRFTLSRDNAKNTDYLQMNSLKPEDTAVYYCAADFSGPFDYWGQGTQVTVSS”, the “polyreactivity (PSR sort gate)” value is “high polyreactivity”.

Consider “QVQLVESGGGLVQAGGSLRLSCAASGFTFALYAMGWYRQAPGKERELVAAISSSGGSTYYADSVKGRFTISRDNAKNTVYLQMNSLKPEDTAVYYCNATRPYRYQSHTRTPRRGYWGQGTQVTVSS”, for which the “polyreactivity (PSR sort gate)” value is listed as “high polyreactivity”.

Regarding “QVQLVESGGGLVQAGGSLRLSCAASGFTFANNAMGWYRQAPGKERELVAAITSSGTRTYYADSVKGRFTISRDNAKNTVYLQMNSLKPEDTAVYYCAADKPGRPSRMYYWGQGTQVTVSS”, the “polyreactivity (PSR sort gate)” value was “high polyreactivity”.
